Measured values: the supplement of paper PMC9170038

Key:
[1] = tested on: MS2 coat protein; experiment: apparent KD of MS2 coat protein, switch OFF state (with FMN for OFF switches, without FMN for ON switches); designed switch direction (-1 OFF switch, 1 ON switch): -1; higher = weaker reporter binding; settings: FMN input: 0 or 200 uM; Eterna round: R93 (includes R88 designs)
Outline: (§1)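 Apparent KD is reported per design as the median of normalised binding-curve fits across its clusters. The RNA switches were made by on-chip transcription from Illumina sequencing clusters. SNAP-549-labelled MS2 coat protein was then added in twofold steps (0.7 or 1.5 nM to 3 µM; 0.8–1.5 h to 10–20 min per step) in 100 mM Tris-HCl pH 7.5, 80 mM KCl, 4 mM MgCl2, without or with constant ligand.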

[2] = tested on: MS2 coat protein; experiment: apparent KD of MS2 coat protein, switch ON state; designed switch direction (-1 OFF switch, 1 ON switch): -1; higher = weaker reporter binding; settings: FMN input: 0 or 200 uM; Eterna round: R93 (includes R88 designs)
Outline: as §1

Sequence	apparent KD of MS2 coat protein [1]	apparent KD of MS2 coat protein [2]
AAAAAGUGAGGAUAUACGCUGAGGAGUAGACACAACCAGGCGUAGAAGGCACAUGAGGAUCACCCAUGUCCAAA [EX4 Malc#11]	39.8 nM	26.1 nM
AAAAAGUGAGGAUAUGUCAAAGGUCACGAAAGUGACAAAGGACAGAAGGCACAUGAGGAUCACCCAUGUGAAAA [Fiskers Exclusion 4D1 65% - Early + late G segment 2]	32.3 nM	26.7 nM
AAAAAGUGAGGAUAUUCGGAUAGGAAAACGAAAACCUAUCCGAAGAAGGCACAUGAGGAUCACCCAUGUGAAAA [67% Ecls-II - Early G + late G segment 1]	24.1 nM	27.5 nM
AAAAAGUGAGGAUAUUCGGAUAGGAAAACGAAAACCUAUCCGAAGAAGGCACAUGAGGAUCACCCAUGUGGAAG [Mat - Exaclusion 4 - Eli mod - D47]	48.3 nM	37.2 nM
AAAAAGUUAGGAUAUACAUGAGGAUCACCCAUGUGCACAUAUGGAGAAUAUGGUGGUAGUAGAAGGGACAAAAA [EX2 Malc#17]	69.7 nM	33.9 nM
AAAAAUGGAGGAUAUACAUGAGGAUCACCCAUGUGUGGGUAUACUGUGUCGGCGUCAGGUAGAAGGCCAAAAAA [Gilly Gone Silly 28 - Jieux - Exclusion 3]	121 nM	132 nM
AAAACGCUAGGAUAUACGAAAAAAAAGGGAGAAAAAAAGGGACAUGAGGAUCACCCAUGUAGAAGGAGCAAAAA [Diamond 88]	105 nM	38.5 nM
AAAACGUGAGGAUAUGCACCAAAAAAGGUAUUUCGGGUACGACAUGAGGAUCACCCAUGUAGAAGGCACGAAAA [Frodo Flailing 13 - Jieux - Exclusion 2]	19.8 nM	22.8 nM
AAAACUCGAGGAUAUACGAACAUGUCAAAAGACGUGAAGGGACAUGAGGAUCACCCAUGUAGAAGGCGAGAAAA [Mat - Exclusion 2 - JL-Eli mod - D45]	123 nM	55.4 nM
AAAACUGGAGGAUAUACAUGAGGAUCACCCAUGUGUGGGUAGACUGUGUCGGCGUCAGGUAGAAGGCCACAAAA [Gilly Gone Silly 31 - Jieux - Exclusion 3]	167 nM	185 nM
AAAACUGGAGGAUAUACGUACAUGUCAAAAGACGUGAAGGGACAUGAGGAUCACCCAUGUAGAAGGCUAGAAAA [JL Stem Breaker 8]	28.6 nM	74.2 nM
AAAAGCUCAGGAUAUACGGUCUGUUGUUGAGAAAUAUCGAAACAUGAGGAUCACCCAUGUAGAAGGGAGCGAAA [Exclusion2-cac2]	269 nM	108 nM
AAAAGGGCAGGAUAUGCGUACUCACGGGAAAGCUGGAUGGUACAUGAGGAUCACCCAUGUAGAAGGGCUAAAAA [Dora Explored 18 - Jieux - Exclusion 2]	21.4 nM	32.8 nM
AAAAGGUGAGGAUAUUCGAAAAUAAAAGAAAAUAAAAGAAAGAAGAAGGCACAUGAGGAUCACCCAUGUAAUAA [LROPPY Exclusion 4 - v02_deltaG=2.94 break up the As mixed]	27 nM	30.1 nM
AAAAGUAGAGGAUAUACAUGAGGAUCACCCAUGUAGAAAGGAAGUGUAUAUAUGGCGUGUAGAAGGCUGCAUGA [Power strip]	32.3 nM	29.3 nM
AAAAGUGGAGGAUAUACAUGAGGAUCACCCAUGUGUAAAAAUAAAUACACAAAAGAAAGUAGAAGGCCACAAAA [Ex 3 May 10]	122 nM	25.8 nM
AAAAUACAUGAGGAUCACCCAUGUGAGGAUAUGCGAAUAAAAAUAAAAUAAAAUAAAAGCAGAAGGCACGAAAA [EX 1 May 24]	32.8 nM	33.4 nM
AAAAUGUGAGGAUAUGUACGAAAAAAUAAAAAAAUAAAAGUACAGAAGGCACAUGAGGAUCACCCAUGUGGGAA [EX4 399: Minimal 12]	94 nM	158 nM
AAACAACAUGAGGAUCACCCAUGUCAGGAUAUGAACGAAAAUAAAUAAAAAUAAAAGUUCAGAAGGGACGAAAA [66%, Wbt, 16]	49.7 nM	31.6 nM
AAACCACAUGAGGAUCACCCAUGUUAGGAUAUGCUAUGGAAAUAAAAAAUAAAACAUAGCAGAAGGGACAAAAA [Mat - Exclusion 1 - Eli mod - D35]	19.3 nM	19.7 nM
AAACGUAGAGGAUAUACAAAAAGAUUACGAAAGUAAUCGGGACAUGAGGAUCACCCAUGUAGAAGGCUACGAAA [Mod2 of Meechl 64% 2]	94.5 nM	36.7 nM
AAAGAUGGAGGAUAUACAUGAGGAUCACCCAUGUAAAAAAAAAAGAGGGAAAAAGAAAGUAGAAGGCCACAAAA [Ex 3 May 44]	46.4 nM	83.1 nM
AAAGCGGCAGGAUAUACAGGAACAAAAGUAUGUGCAUCCGCACAUGAGGAUCACCCAUGUAGAAGGGCUAAUAA [Ontiti]	270 nM	167 nM
AAAGGAUCAGGAUAUGUGUGGAAAAAGUGUAUCCAAAAAAAACAUGAGGAUCACCCAUGUAGAAGGGAUCCAAA [Mod 2 of Normal (20/19) by Nando, Round 1]	441 nM	177 nM
AAAGUGUGAGGAUAUGUCAAAGGUCACGAAAGUGACAAAGGGCAGAAGGUACAUGAGGAUCACCCAUGUAAAAA [Opal 1]	19.9 nM	24 nM
AAAUACCAAGGAUAUACAUGAGGAUCACCCAUGUACAAACCCGUGGAACGGAUCGUUGGUAGAAGGUGGAAAUA [Isleusso]	12.2 nM	13.4 nM
AAAUAGCAAGGAUAUACAUGAGGAUCACCCAUGUGACCCAGGUAUGGCAUAGAAUAGAGUAGAAGGUGCAAAUA [Mod 4 of Ex 3 Tesla 8 - Jieux - Exclusion 3]	149 nM	132 nM
AAAUAGUUAGGAUAUACAUGAGGAUCACCCAUGUGGACUUAUGGAGAAUAAUUUAAUGGUAGAAGGGACUAAAA [EX2 Malc#26]	45.5 nM	54.3 nM
AAAUUAGGAGGAUAUACAUGAGGAUCACCCAUGUGACGAUGUUACUGCAUGAAGUCAAGUAGAAGGUCUAAGAA [Cearar]	44.2 nM	31.7 nM
